Test results taken from patent US9492315B2, “Implantable therapeutic device” (ForSight Vision4, Inc., priority 2010, dated 2016).
Read-outs that look alike come from different tables or passages of the source.

Columns and labels:
[1] = rabbit and monkey (Gaudreault et al.), cited from earlier work
[2] = system: Grade IV choroidal neovascularization (CNV) lesions; conditions: intravitreal injection, all doses tested, cynomolgus monkeys, laser photocoagulation model; cited from earlier work
[3] = system: retinal thickness / lesion size in wet AMD; assay: Low dose Lucentis MIC study in wet AMD patients with OCT imaging (Example 18); format: in vivo, human
Excerpt: OCT (Optical Coherence Tomography) imaging was used to assess the condition of the region of the macula at the back surface of the treated eye. The OCT technique relies on the measurement of certain properties of light (e.g. echo time, intensity of reflection) that has been directed at the area of study and can measure very small amounts of reflected light. Because these cellular features are essentially transparent it is possible to use OCT methodology to generate three dimensional representations of the area.
The regions of interest were analyzed with a two dimensional representation of the cross section of the retinal wall at one longitudinal scan location of the OCT image. In these “OCT scan” images is it possible to interrogate very local areas of interest more specifically. The OCT scans were carefully selected to directly compare the thickness and anatomical structure of specific sites within a lesion, pre and post treatment, for the purpose of assessing the effect of injected drug including a reduction in sub-retinal fluid.
The OCT images were measured the day after injection and at 2-3 days post injection.
Further studies can be conducted by one or ordinary skill in the based on the teachings described herein to determine empirically the MIC for a sustained release device and cumulative effect of the drug over the time of release.

[4] = Determined concentration profiles of Lucentis/ranibizumab in the vitreous humor for injections into the device or bolus (FIGS. 19B-19T, 32A-32E, 37); parameters: species or system human; conditions: parameter used for FIGS. 19K to 19P, half-life 9 days
Excerpt: The therapeutic device 100 can be tuned to deliver a target therapeutic concentration profile based on the volume of formulation injected into the device. The injected volume may comprise a substantially fixed volume, for example within about +/−30% of an intended predetermined target volume. The volume of the reservoir can be sized with the release rate index so as to release the therapeutic agent for an extended time substantially greater than the treatment time of a corresponding bolus injection. The device can also be tuned to release the therapeutic agent based on the half life of the therapeutic agent in the eye. The device volume and release rate index comprise parameters that can be tuned together based on the volume of formulation injected and the half life of the therapeutic agent in the eye. The following equations can be used to determine therapeutic device parameters suitable for tuning the device. Rate=Vr(dCr/dt)=−D(PA/TL)Cr where Rate=Rate of release of therapeutic agent from device Cr=concentration of therapeutic agent in reservoir Vr=volume of reservoir D=Diffusion constant PA/TL=RRI P=porosity A=area T=tortuosity=F=channel parameter. […]
These concentration profiles were determined with modeling and calculations as described herein. […]

[5] = Calculations of Lucentis concentrations in the vitreous, monkey model (bolus injections and device Simulations 1-5); conditions: parameter applied in Simulations 1-5 (column = simulation)
Excerpt: A model can be derived to describe the release rate as a function of time by relating the change of concentration in the reservoir to the release rate described above. This model assumes a solution of therapeutic agent where the concentration in the reservoir is uniform. In addition, the concentration in the receiving fluid or vitreous is considered negligible (cV=0). Solving the differential equation and rearrangement yields the following equations describing the concentration in the reservoir as a function of time, t, and volume of the reservoir, VR, for release of a therapeutic agent from a solution in a reservoir though a porous structure. cR=cR0exp((−DPA/FLVR)t) and Cumulative Release=1−cR/cR0
A bolus injection into the vitreous may be modeled as a single exponential with rate constant, k=0.693/half-life and a cmax=dose/Vv where Vv is the vitreous volume. […] The vitreous volume is approximately 1.5 mL for the rabbit and monkey and 4.5 mL for the human eye. […] This concentration decays to a vitreous concentration of 0.1 ug/mL after about a month.
For devices with extended release, the concentration in the vitreous changes slowly with time. […]
The first column used the measured Cmax (Gaudreault et al.) while the second used a calculated Cmax based on the dose and volume of the vitreous.

[6] = humans (Lucentis package insert); cited from earlier work

MIC for a sustained release device ([3]; human patients, wet AMD): ≤ 1 ug per ml
Substance: ranibizumab [Lucentis]
half-life in the vitreous [1]: two to four | half-life in the vitreous ([1]; listed as ranibizumab): approximately 3 days | development of Grade IV CNV lesions [2]: completely inhibited | Treatment Effect Observed? ([3]; decrease in size of the lesion on OCT after low dose bolus, patient # in r2, dose in r4): Yes | Rate constant, k [4]: 0.077 day⁻¹ | Rate constant, k [5]: 0.264 day⁻¹ | half-life in the vitreous [6]: ~220 h
